Experimental findings from publication PMC4866497 are described below.

Data set [1] has as its system MetMab full heavy chain with T366V K409V, with MetMab light chain. In words: SEC. For orientation: In gel filtration, larger molecules generally elute earlier.
Data set [2] shares this test system. In words: SEC. The source holds these as a separate data set.
Data set [3] deals with MetMab full heavy chain with K360D D399M Y407A, with MetMab light chain. In words: SEC.
Data set [4] shares this test system. In words: SEC. This is another data set of the same source.
The subject of data set [5] is MetMab full heavy chain with E345R Q347R T366V K409V, with MetMab light chain. In words: SEC.
The test system is the same in data set [6]. In words: SEC. The source holds these as a separate data set.
Data set [7] relates to MetMab full heavy chain with T350V T366L K392L T394W, with MetMab light chain. In words: SEC.
For data set [8] the test system is unchanged. In words: SEC. The source holds these as a separate data set.
The subject of data set [9] is MetMab full heavy chain with T350V L351Y F405A Y407V, with MetMab light chain. In words: SEC.
The test system is the same in data set [10]. In words: SEC. The source holds these as a separate data set.
For data set [11], the system named is MetMab full heavy chain with D399M Y407A, with MetMab light chain. In words: SEC.
Data set [12] has the same test system. In words: SEC. The source holds these as a separate data set.
Data set [13] has as its target IgG1 Fc with T366V K409V. In words: SEC.
The subject of data set [14] is MetMab full heavy chain with T366S L358V Y407A, with MetMab light chain. In words: SEC.
The test system is the same in data set [15]. In words: SEC. This is another data set of the same source.
Data set [16] deals with EGFR domain 3 - Fc with T350V T366L K392L T394W. In words: FRET or BRET. A general note: Bioluminescence resonance energy transfer reports proximity on the nanometre scale.
The test system of data set [17] is EGFR domain 3 - Fc with D399M Y407A. In words: FRET or BRET.

Read-outs that look alike come from different tables or passages of the source.

In the case of IgG1 Fc with D399M Y407A, the values for the % AB heterodimer in [1] and in data set [2] were 26.9% and 88.6%, respectively. In the case of IgG1 Fc with E345R Q347R T366V K409V, the % AB heterodimer in data set [3] was found to be 46.2%; in data set [4], 92.9%.

IgG1 Fc with K360D D399M Y407A: the % AB heterodimer was found to be 32.5% in data set [5] and 93.3% in data set [6]. For the substance IgG1 Fc with T350V L351Y F405A Y407V, the % AB heterodimer in data set [7] amounted to 18.3%; in data set [8] it was 94.3%. Take IgG1 Fc with T350V T366L K392L T394W: the values for the % AB heterodimer in data set [9] and in data set [10] were 25.6% and 87.6%, respectively. On to IgG1 Fc with T366V K409V, for which the % AB heterodimer in data set [11] was 42.3%; in data set [12], 89.9%. In data set [13], “IgG1 Fc with T366V K409V (domain or fragment)” yielded a % BB homodimer (co-expressed with m8) of 8.2%.

As for IgG1 Fc with T366W, the % AB heterodimer in [14] amounted to 33.1%; in data set [15] it was 94.1%. On to “VEGFR1 domain 3 - Fc with T350V L351Y F405A Y407V”, for which the % AB heterodimer in data set [16] is 94.8%. As for VEGFR1 domain 3 - Fc with T366V K409V, the % AB heterodimer in [17] stood at 89%.
